The nature of the series: self-splicing fitness, log relative to wild type (ln ratio); higher = more splicing; Tetrahymena group I intron in knt gene, E. coli kanamycin selection, DiMSum; sequences stand for … in CUCUCU…GGAGGGAAAAGUUAUCAGGCAUGCACCUGGUAGCUAGUCUUUAAACCAAUAGAUUGCAUCGGUUUAAAAGGCAAGACCGUCAAAUUGCGGGAAAGGGGUCAACAGCCGUUCAGUACCAAGUCUCAGGGGAAACUUUGAGAUGGCCUUGCAAAGGGUAUGGUAAUAAGCUGACGGACAUGGUCCUAACCACGCAGCCAAGUCCUAAGUCAACAGAUCUUCUGUUGAUAUGGAUGCAGUUCACAGACUAAAUGUCGGUCGGGGAAGAUGUAUUCUUCUCAUAAGAUAUAGUCGGACCUCUCCUUAAUGGGAGCUAGCGGAUGAAGUGAUGCAACACUGGAGCCGCUGGGAACUAAUUUGUAUGCGAAAGUAUAUUGAUUAGUUUUGGAGUACUCGUGGUCG
In short, it runs like this:
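A randomised library covering all eight P1ex-region intron nucleotides was built with the intron in the knt kanamycin-resistance gene on pET-22b(+) and held in E. coli BL21(DE3). Cells were grown overnight at 37°C or 30°C on LB agar, with or without 25 μg/mL kanamycin, plus 100 μg/mL carbenicillin, 50 μM IPTG and 0.2% rhamnose, and pooled colonies were amplicon-sequenced on an Illumina HiSeq 2500. DiMSum fitness is the error-weighted combination of wild-type-normalised replicate fold changes, kanamycin versus none.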

± gives the uncertainty stated by the source.

AUAGAGCAAUAUUACGGCUU: the “self-splicing fitness (ln)” value is, setting by setting: (30 °C) -0.934 ± 0.12; (37 °C) -1.34 ± 0.14.

For AUAGAGCAAUAUUACGGGAC, the “self-splicing fitness (ln)” value is, setting by setting: (30 °C) -2.71 ± 0.18; (37 °C) -2.36 ± 0.27.

AUAGAGCAAUAUUACGGGGA: for the setting “37 °C”, the “self-splicing fitness (ln)” value is -2.44 ± 0.28.

As for AUAGAGCAAUAUUACGGUAG, the “self-splicing fitness (ln)” value (30 °C) is -3.5 ± 0.16 and the “self-splicing fitness (ln)” value (37 °C) was -1.38 ± 0.13.

With AUAGAGCAAUAUUACGGUUA, the “self-splicing fitness (ln)” value (30 °C) is -1.49 ± 0.083 and the “self-splicing fitness (ln)” value (37 °C) is -1.05 ± 0.11.

Regarding AUAGAGCAAUAUUACGUCAA, the “self-splicing fitness (ln)” value is -2.19 ± 0.23 (30 °C) and -1.77 ± 0.24 (37 °C).

As for AUAGAGCAAUAUUACGUCUA, the “self-splicing fitness (ln)” value (30 °C) is -0.2 ± 0.076 and the “self-splicing fitness (ln)” value (37 °C) is 0.816 ± 0.11.

As for AUAGAGCAAUAUUACGUGAU, the “self-splicing fitness (ln)” value was -2.02 ± 0.12 (30 °C) and -0.825 ± 0.17 (37 °C).

In the case of AUAGAGCAAUAUUACGUGGU, the “self-splicing fitness (ln)” value was -2.91 ± 0.19 (30 °C) and -1.83 ± 0.2 (37 °C).

Turning to AUAUAGCAAUAUUACGACAC, the “self-splicing fitness (ln)” value is -1.5 ± 0.23 (30 °C) and -0.312 ± 0.29 (37 °C).

For AUAUAGCAAUAUUACGAGCA, the “self-splicing fitness (ln)” value is -2.32 ± 0.24 (30 °C) and -0.917 ± 0.18 (37 °C).

Take AUAUAGCAAUAUUACGAUCC: the “self-splicing fitness (ln)” value was -0.6 ± 0.16 (30 °C) and -0.578 ± 0.28 (37 °C).

With AUAUAGCAAUAUUACGCAAA, the “self-splicing fitness (ln)” value is -1.94 ± 0.24 (30 °C) and -1.69 ± 0.24 (37 °C).

As for AUAUAGCAAUAUUACGCUAA, the “self-splicing fitness (ln)” value reads like this: (30 °C) -1.87 ± 0.3; (37 °C) -0.768 ± 0.27.

In the case of AUAUAGCAAUAUUACGCUGG, the “self-splicing fitness (ln)” value runs as follows: (30 °C) -2.06 ± 0.2; (37 °C) -1.51 ± 0.32.

AUAUAGCAAUAUUACGCUUG: the “self-splicing fitness (ln)” value by setting is: (30 °C) -1.42 ± 0.11; (37 °C) -0.589 ± 0.13.

For AUAUAGCAAUAUUACGGGCA, the “self-splicing fitness (ln)” value (30 °C) was -1.67 ± 0.17 and the “self-splicing fitness (ln)” value (37 °C) is -1.29 ± 0.19.

For AUAUAGCAAUAUUACGUAAC, the “self-splicing fitness (ln)” value runs as follows: (30 °C) -1.11 ± 0.21; (37 °C) -1.86 ± 0.38.

For the sequence AUAUAGCAAUAUUACGUAGG, the “self-splicing fitness (ln)” value is -3.06 ± 0.21 (30 °C) and -0.744 ± 0.16 (37 °C).

AUAUAGCAAUAUUACGUCGG: the “self-splicing fitness (ln)” value (30 °C) was -3.37 ± 0.33 and the “self-splicing fitness (ln)” value (37 °C) is -2.03 ± 0.28.

On to AUAUAGCAAUAUUACGUGUG, for which the “self-splicing fitness (ln)” value by setting is: (30 °C) -3.82 ± 0.27; (37 °C) -2.46 ± 0.18.

As for AUCAAGCAAUAUUACGAACG, the “self-splicing fitness (ln)” value is, setting by setting: (30 °C) -1.61 ± 0.13; (37 °C) -0.462 ± 0.13.

In the case of AUCAAGCAAUAUUACGAAGA, the “self-splicing fitness (ln)” value reads like this: (30 °C) -1.66 ± 0.19; (37 °C) -1.64 ± 0.23.

Regarding AUCAAGCAAUAUUACGAGCC, the “self-splicing fitness (ln)” value is, setting by setting: (30 °C) -3.07 ± 0.32; (37 °C) -1.23 ± 0.31.

Turning to AUCAAGCAAUAUUACGAUAG, the “self-splicing fitness (ln)” value was -2.36 ± 0.35 (30 °C) and -1.63 ± 0.43 (37 °C).

As for AUCAAGCAAUAUUACGCCGU, the “self-splicing fitness (ln)” value was -1.19 ± 0.087 (30 °C) and -0.429 ± 0.1 (37 °C).

Turning to AUCAAGCAAUAUUACGCCUU, the “self-splicing fitness (ln)” value runs as follows: (30 °C) -0.799 ± 0.094; (37 °C) -0.146 ± 0.12.

For AUCAAGCAAUAUUACGCGAU, the “self-splicing fitness (ln)” value (30 °C) is -4.42 ± 0.33 and the “self-splicing fitness (ln)” value (37 °C) is -3.08 ± 0.3.

Consider AUCAAGCAAUAUUACGCGCU, for which the “self-splicing fitness (ln)” value is, setting by setting: (30 °C) -1.27 ± 0.12; (37 °C) -0.36 ± 0.11.

In the case of AUCAAGCAAUAUUACGCUAC, the “self-splicing fitness (ln)” value (37 °C) is -0.41 ± 0.33.

AUCAAGCAAUAUUACGCUCU: the “self-splicing fitness (ln)” value (30 °C) is -0.452 ± 0.07 and the “self-splicing fitness (ln)” value (37 °C) is 0.0492 ± 0.082.

Regarding AUCAAGCAAUAUUACGCUGA, the “self-splicing fitness (ln)” value (30 °C) was -2.51 ± 0.13 and the “self-splicing fitness (ln)” value (37 °C) is -1.46 ± 0.12.

With AUCAAGCAAUAUUACGGACC, the “self-splicing fitness (ln)” value (30 °C) is -1.47 ± 0.12 and the “self-splicing fitness (ln)” value (37 °C) was -1.22 ± 0.086.

Turning to AUCAAGCAAUAUUACGGCCA, the “self-splicing fitness (ln)” value (30 °C) was -0.51 ± 0.074 and the “self-splicing fitness (ln)” value (37 °C) was -0.264 ± 0.079.

In the case of AUCAAGCAAUAUUACGGCUC, the “self-splicing fitness (ln)” value is -0.551 ± 0.063 (30 °C) and -0.7 ± 0.076 (37 °C).

With AUCAAGCAAUAUUACGGCUU, the “self-splicing fitness (ln)” value was -2.87 ± 0.13 (30 °C) and -1.54 ± 0.14 (37 °C).

Turning to AUCAAGCAAUAUUACGGUGA, the “self-splicing fitness (ln)” value runs as follows: (30 °C) -1.36 ± 0.096; (37 °C) -0.818 ± 0.1.

In the case of AUCAAGCAAUAUUACGGUUC, the “self-splicing fitness (ln)” value is, setting by setting: (30 °C) -3.53 ± 0.24; (37 °C) -2.01 ± 0.13.

The record behind these values is the supplement of paper PMC7877785.
